Like-named read-outs stand apart in the source and are kept apart here.
Tests used:
[1] = target: Delta variant S protein on plant-produced virus-like particles (SARS-CoV-2 (Delta variant)) (UniProt P0DTC2); assay: ELISA
[2] = target: Delta variant S protein on plant-produced virus-like particles (SARS-CoV-2 (Delta variant)) (UniProt P0DTC2); assay: ELISA; remark: listed apart in the source

Substance | EC50 [1] [nM] | EC50 [2] [nM]
COVA2-15 secretory IgA1 (from UniProt P01591 23-159; P01833 19-603) (antibody) | 0.09 | –
COVA2-15 IgG (antibody) | 9 | 9.03
COVA2-15 monomeric IgA2 (antibody) | – | 2.06
COVA2-15 monomeric IgA1 (antibody) | – | 1.95
COVA2-15 secretory IgA1 (from UniProt P01591 23-159; P01833 19-764) (antibody) | – | 0.086
COVA2-15 secretory IgA2 (from UniProt P01591 23-159; P01833 19-764) (antibody) | – | 0.542
